Results on one molecule are retold here after EP4289863A9.

The target of assay [1] is T1, human IL-36R (human) (UniProt Q9HB29).
T1 sequence (looked up): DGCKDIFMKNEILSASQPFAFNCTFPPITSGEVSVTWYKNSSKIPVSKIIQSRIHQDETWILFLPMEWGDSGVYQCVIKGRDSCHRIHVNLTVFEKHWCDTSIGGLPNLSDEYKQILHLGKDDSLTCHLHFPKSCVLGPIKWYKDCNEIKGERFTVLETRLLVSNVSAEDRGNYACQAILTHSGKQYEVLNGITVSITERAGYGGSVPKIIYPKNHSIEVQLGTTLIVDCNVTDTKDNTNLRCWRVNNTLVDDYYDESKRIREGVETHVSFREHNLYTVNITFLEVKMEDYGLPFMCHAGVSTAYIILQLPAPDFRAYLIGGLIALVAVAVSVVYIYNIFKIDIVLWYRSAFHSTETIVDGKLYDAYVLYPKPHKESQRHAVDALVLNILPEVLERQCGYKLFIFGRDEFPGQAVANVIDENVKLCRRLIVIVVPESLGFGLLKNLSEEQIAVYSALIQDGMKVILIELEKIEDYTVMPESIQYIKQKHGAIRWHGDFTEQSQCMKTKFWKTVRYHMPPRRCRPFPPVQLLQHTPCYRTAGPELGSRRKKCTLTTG
Put plainly: cell-based or functional assay.

The target of assay [2] is T1, human IL-36R (human). Put plainly: flow cytometry on cells, hybridoma supernatant. (A flow cytometer gives signals particle by particle.)
The target in the next assay is human IL1R1 (human) (UniProt P14778). Put plainly: flow cytometry on cells, hybridoma supernatant.
A further assay addresses monkey IL-36R (monkey). The assay can be described thus: flow cytometry on cells, hybridoma supernatant.
In assay [3] the target is T2, human IL-36R (antigen of the OD450 binding screen of Table 1) (human) (UniProt Q9HB29).
T2 sequence (looked up): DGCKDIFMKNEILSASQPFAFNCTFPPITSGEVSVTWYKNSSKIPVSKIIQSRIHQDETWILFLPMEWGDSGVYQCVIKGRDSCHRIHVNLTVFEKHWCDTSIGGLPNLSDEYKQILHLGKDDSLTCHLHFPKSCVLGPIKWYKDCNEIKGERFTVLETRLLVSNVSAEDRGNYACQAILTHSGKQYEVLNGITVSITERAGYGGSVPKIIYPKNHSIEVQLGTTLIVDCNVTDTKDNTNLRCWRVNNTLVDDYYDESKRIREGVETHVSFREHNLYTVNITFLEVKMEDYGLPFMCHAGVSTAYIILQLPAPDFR
Put plainly: OD450 binding screen of hybridoma supernatant, antigen not named.

human IL1R1 (human), sequence (P14778 18-569): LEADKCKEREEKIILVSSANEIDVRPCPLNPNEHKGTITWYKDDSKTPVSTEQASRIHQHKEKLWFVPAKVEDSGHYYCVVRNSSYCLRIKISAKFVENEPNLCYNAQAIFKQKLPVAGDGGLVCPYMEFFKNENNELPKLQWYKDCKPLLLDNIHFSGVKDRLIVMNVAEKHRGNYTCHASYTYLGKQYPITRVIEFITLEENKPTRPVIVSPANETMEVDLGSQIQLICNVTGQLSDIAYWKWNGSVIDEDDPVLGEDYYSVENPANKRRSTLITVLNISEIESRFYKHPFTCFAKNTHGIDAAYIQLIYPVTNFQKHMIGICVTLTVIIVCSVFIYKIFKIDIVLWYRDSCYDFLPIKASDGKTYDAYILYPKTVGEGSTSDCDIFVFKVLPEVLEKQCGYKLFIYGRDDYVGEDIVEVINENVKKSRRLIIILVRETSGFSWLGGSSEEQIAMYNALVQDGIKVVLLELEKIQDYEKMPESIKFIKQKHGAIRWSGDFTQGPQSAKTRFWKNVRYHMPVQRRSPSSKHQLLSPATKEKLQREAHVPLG

B1: 111(1)-E5 (antibody, part only; not given: light chain, V domains shown, part only)
VH: QVQLQQTGSVLVRPGTSVKLSCKASGYTFTSSWMHWAKQRPGQGLEWIGEIHPNSAKTNYNEKFKGKATLTVDTFSSTAYVDLSSLASEDSAVYYCARVDYGKPWFAYWGQGTLVTVSA
B1: in the assay with human IL-36R (human) [1], the IL-6 ratio in blockage of human IL36β functional activity (hybridoma supernatant/positive control) was 0.07%, the IL-8 ratio in blockage of human IL36α functional activity (hybridoma supernatant/positive control) was -4.02%, the IL-8 ratio in blockage of human IL36β functional activity (hybridoma supernatant/positive control) was -4.62% and the IL-8 ratio in blockage of human IL36γ functional activity (hybridoma supernatant/positive control) is -3.86%. Further, the MFI ratio (hybridoma supernatant/positive control) with human IL-36R (human) [2] was 81.6%. Besides, the MFI ratio (hybridoma supernatant/negative control) in the assay with human IL1R1 (human) was 118%. In the assay with monkey IL-36R (monkey), the MFI ratio (hybridoma supernatant/positive control) was 105%. For the same molecule, in assay [3], the Binding activity OD450 value worked out at 2.16 OD450.
